What was measured:
integrin on U87MG cells = assay: cell-based or functional assay
[1] = target: T1, integrin alphaVbeta3 protein (R&D systems) (human, UniProt P06756 31-992; P05106 27-718); assay: ELISA, integrin coated at 5 µg/ml, FLAG-Ang2 at 10 µg/ml, anti-FLAG-HRP
T1 construct: Bought recombinant heterodimer coated on the ELISA plate; also called αVβ3; integrin (αVβ3)

[2] = target: T2, integrin alphaVbeta1 protein (R&D systems) (human, UniProt P06756 31-992; P05556 21-728); assay: as above
T2 construct: Bought recombinant heterodimer coated on the ELISA plate; also called αVβ1

[3] = target: T3, integrin alpha5beta1 protein (R&D systems) (human, UniProt P08648 42-995; P05556 21-728, limits assumed); assay: as above
T3 construct: Bought recombinant heterodimer coated on the ELISA plate; also called α5β1

[4] = target: T4, Tie2 proteins (Q02763, R&D systems) (UniProt Q02763 23-745, limits assumed); assay: ELISA, Tie2 coated, Ang2 proteins at 5 µg/ml
T4 construct: Bought protein coated on ELISA plates

[5] = target: T1, integrin alphaVbeta3 protein (R&D …); assay: ELISA, integrin αVβ3 coated, Ang2 proteins at 5 µg/ml

T4 sequence (Q02763 23-745 limits assumed, one chain of several): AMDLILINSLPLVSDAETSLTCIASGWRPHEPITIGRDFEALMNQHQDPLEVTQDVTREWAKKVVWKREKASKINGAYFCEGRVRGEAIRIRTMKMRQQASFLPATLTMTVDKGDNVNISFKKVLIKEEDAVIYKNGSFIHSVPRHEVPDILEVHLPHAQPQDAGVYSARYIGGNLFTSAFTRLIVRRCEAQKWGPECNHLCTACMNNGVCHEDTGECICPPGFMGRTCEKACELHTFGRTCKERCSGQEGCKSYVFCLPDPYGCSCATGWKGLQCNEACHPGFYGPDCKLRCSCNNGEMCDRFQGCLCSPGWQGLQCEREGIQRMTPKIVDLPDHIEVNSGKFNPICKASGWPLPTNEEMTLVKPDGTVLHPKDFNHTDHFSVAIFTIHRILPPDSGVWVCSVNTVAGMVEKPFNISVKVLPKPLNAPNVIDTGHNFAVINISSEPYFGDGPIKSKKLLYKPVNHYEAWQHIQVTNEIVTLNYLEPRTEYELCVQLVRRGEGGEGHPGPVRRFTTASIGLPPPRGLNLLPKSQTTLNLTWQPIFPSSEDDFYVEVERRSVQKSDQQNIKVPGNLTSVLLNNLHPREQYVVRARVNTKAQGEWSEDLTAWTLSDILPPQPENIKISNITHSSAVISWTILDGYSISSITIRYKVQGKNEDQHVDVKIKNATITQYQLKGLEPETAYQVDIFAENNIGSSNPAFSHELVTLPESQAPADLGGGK
T1 sequence (P06756 31-992 limits assumed, chain 1 of 2): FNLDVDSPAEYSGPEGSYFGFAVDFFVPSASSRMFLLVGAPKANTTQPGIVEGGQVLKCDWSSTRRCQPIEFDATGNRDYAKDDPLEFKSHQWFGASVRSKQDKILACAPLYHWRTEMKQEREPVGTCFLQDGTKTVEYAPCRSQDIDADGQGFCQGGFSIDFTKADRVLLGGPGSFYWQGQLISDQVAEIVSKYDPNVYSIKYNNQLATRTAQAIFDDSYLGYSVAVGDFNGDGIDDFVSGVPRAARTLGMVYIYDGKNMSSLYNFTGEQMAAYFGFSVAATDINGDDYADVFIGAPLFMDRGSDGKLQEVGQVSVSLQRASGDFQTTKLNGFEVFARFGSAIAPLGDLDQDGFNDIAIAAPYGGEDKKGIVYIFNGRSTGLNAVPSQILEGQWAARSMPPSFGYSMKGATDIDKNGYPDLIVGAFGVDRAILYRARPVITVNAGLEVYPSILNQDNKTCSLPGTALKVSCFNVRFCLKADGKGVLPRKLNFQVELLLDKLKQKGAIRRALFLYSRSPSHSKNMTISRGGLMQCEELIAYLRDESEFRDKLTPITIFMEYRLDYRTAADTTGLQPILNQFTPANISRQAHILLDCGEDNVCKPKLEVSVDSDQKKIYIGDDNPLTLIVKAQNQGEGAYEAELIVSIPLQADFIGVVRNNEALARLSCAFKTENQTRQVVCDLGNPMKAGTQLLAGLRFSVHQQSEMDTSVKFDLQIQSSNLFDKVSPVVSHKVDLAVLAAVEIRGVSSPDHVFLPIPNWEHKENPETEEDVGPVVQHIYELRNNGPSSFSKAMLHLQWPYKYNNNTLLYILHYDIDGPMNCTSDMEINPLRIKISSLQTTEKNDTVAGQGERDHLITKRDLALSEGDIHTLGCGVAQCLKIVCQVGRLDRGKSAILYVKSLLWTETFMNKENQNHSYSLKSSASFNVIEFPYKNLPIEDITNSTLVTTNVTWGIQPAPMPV
T1 sequence (P05106 27-718 limits assumed, chain 2 of 2): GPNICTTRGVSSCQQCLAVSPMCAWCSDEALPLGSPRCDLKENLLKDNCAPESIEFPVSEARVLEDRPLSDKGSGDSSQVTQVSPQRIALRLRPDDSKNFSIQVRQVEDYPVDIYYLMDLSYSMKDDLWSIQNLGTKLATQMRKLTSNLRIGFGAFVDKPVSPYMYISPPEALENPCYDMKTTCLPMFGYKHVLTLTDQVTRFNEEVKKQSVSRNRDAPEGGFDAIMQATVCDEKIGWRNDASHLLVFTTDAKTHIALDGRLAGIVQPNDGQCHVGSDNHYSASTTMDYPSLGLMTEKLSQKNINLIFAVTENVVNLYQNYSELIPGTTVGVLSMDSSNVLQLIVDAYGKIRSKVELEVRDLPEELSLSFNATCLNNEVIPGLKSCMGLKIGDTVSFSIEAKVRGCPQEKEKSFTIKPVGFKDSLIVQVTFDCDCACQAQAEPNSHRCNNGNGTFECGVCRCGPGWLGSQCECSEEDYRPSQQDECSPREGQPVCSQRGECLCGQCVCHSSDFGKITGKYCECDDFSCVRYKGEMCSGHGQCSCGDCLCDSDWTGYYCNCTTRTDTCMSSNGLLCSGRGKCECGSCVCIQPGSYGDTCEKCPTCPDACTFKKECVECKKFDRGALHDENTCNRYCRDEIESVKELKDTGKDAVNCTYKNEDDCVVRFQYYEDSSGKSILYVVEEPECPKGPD
T3 sequence (P08648 42-995 limits assumed, chain 1 of 2): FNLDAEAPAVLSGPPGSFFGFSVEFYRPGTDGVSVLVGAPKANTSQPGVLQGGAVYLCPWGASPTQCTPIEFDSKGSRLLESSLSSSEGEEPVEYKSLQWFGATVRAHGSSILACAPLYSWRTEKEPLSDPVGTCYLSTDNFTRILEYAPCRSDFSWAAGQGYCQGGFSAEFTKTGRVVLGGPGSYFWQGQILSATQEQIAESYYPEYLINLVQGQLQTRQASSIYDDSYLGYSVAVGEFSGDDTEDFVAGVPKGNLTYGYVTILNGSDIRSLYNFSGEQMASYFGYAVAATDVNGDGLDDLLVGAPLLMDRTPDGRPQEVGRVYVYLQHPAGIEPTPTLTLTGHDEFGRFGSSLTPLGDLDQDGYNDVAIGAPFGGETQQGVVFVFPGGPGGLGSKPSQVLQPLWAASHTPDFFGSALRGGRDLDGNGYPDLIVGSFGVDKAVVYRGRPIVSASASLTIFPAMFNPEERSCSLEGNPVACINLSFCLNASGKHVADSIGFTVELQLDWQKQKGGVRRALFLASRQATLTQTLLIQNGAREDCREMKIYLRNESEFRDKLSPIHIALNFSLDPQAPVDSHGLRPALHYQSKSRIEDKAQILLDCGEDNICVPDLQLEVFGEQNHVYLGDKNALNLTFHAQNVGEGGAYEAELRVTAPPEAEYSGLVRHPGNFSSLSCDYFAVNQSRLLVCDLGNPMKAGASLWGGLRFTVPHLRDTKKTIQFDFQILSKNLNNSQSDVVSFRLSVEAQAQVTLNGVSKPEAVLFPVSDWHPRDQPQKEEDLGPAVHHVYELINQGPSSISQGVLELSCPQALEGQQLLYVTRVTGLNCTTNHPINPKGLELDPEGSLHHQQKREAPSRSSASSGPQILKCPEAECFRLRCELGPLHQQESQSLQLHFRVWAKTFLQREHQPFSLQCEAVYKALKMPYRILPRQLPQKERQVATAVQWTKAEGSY
T3 sequence (P05556 21-728 limits assumed, chain 2 of 2): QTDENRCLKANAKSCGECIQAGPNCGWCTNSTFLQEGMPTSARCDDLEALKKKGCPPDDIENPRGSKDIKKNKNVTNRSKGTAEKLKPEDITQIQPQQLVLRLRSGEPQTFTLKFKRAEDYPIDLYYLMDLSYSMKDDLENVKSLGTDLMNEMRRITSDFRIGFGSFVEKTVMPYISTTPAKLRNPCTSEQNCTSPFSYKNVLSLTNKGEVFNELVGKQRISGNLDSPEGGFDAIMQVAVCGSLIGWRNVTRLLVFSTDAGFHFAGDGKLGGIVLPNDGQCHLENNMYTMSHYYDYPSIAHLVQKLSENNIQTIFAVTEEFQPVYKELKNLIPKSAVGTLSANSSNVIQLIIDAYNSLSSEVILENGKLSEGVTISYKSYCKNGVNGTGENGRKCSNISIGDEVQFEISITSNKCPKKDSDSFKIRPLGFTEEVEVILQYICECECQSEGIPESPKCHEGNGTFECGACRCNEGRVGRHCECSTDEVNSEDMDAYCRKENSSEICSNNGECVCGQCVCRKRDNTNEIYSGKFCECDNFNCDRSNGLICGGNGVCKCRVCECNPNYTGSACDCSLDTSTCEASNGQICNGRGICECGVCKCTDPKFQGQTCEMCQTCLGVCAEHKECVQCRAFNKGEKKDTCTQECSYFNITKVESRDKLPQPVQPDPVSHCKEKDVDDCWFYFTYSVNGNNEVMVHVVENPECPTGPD
T2 sequence (P06756 31-992 limits assumed, chain 1 of 2): as the sequence (P06756 31-992 limits assumed, chain 1 of 2) above
T2 sequence (P05556 21-728 limits assumed, chain 2 of 2): as the sequence (P05556 21-728 limits assumed, chain 2 of 2) above

Binder	decrease in Ang2 dependent cell adhesion of U87MG cells to Ang2-coated plates, peptide at 100 µg/ml (integrin on U87MG cells)	binding result [4]	further results
HTTNGIYTLTFPNST [Ang2 derived peptide of SEQ ID No. 3]	> 50%		
Ang2 protein having FLAG sequences tagged at its N-terminal (FLAG-Ang2), wild type (ligand, it may include a signal peptide that is absent from the protein; also called FLAG-tagged Ang2; wild-type Ang2 protein) DYKDDDDKYNNFRKSMDSIGKKQYQVQHGSCSYTFLLPEMDNCRSSSSPYVSNAVQRDAPLEYDDSVQRLQVLENIMENNTQWLMKLENYIQDNMKKEMVEIQQNAVQNQTAVMIEIGTNLLNQTAEQTRKLTDVEAQVLNQTTRLELQLLEHSLSTNKLEKQILDQTSEINKLQDKNSFLEKKVLAMEDKHIIQLQSIKEEKDQLQVLVSKQNSIIEELEKKIVTATVNNSVLQKQQHDLMETVNNLLTMMSTSNSAKDPTVAKEEQISFRDCAEVFKSGHTTNGIYTLTFPNSTEEIKAYCDMEAGGGGWTIIQRREDGSVDFQRTWKEYKVGFGNPSGEYWLGNEFVSQLTNQQRYVLKIHLKDWEGNEAYSLYEHFYLSSEELNYRIHLKGLTGTAGKISSISQPGNDFSTKDGDNDKCICKCSQMLTGGWWFDACGPSNLNGMYYPQRQNTNKFNGIKWYYWKGSGYSLKATTMMIRPADF		binds	binding result [1]: binds; binding result [2]: binds; binding result [3]: binds
IYTLTFPNSTEEIKA [Ang2 derived peptide of SEQ ID No. 4]	> 50%		
EYWLGNEFVSQLTNQ [Ang2 derived peptide of SEQ ID No. 15 (Peptide 15)]	> 50%		

Further lines, with some results ahead:

decrease in Ang2 dependent cell adhesion of U87MG cells to Ang2-coated plates, peptide at 100 µg/ml (integrin on U87MG cells)	binding result [4]	Binder	further results
	binds	FLAG-Ang2 protein modified form (Q362A) (ligand, also called Q362A Ang2 protein; Q362A modified form) DYKDDDDKYNNFRKSMDSIGKKQYQVQHGSCSYTFLLPEMDNCRSSSSPYVSNAVQRDAPLEYDDSVQRLQVLENIMENNTQWLMKLENYIQDNMKKEMVEIQQNAVQNQTAVMIEIGTNLLNQTAEQTRKLTDVEAQVLNQTTRLELQLLEHSLSTNKLEKQILDQTSEINKLQDKNSFLEKKVLAMEDKHIIQLQSIKEEKDQLQVLVSKQNSIIEELEKKIVTATVNNSVLQKQQHDLMETVNNLLTMMSTSNSAKDPTVAKEEQISFRDCAEVFKSGHTTNGIYTLTFPNSTEEIKAYCDMEAGGGGWTIIQRREDGSVDFQRTWKEYKVGFGNPSGEYWLGNEFVSALTNQQRYVLKIHLKDWEGNEAYSLYEHFYLSSEELNYRIHLKGLTGTAGKISSISQPGNDFSTKDGDNDKCICKCSQMLTGGWWFDACGPSNLNGMYYPQRQNTNKFNGIKWYYWKGSGYSLKATTMMIRPADF	invasion of U87MG cells through matrigel-coated transwell toward 5 µg/ml Ang2 protein, 48 hours (fraction of wild type Ang2) (integrin on U87MG cells): 0.5; binding level relative to the wild type Ang2 [5]: ≤ 50%
> 50%		LNYRIHLKGLTGTAG [Ang2 derived peptide of SEQ ID No. 24]	

Source: patent US20160101154A1 (SAMSUNG ELECTRONICS, published 2016)
